The target in the test is FcγRI (UniProt P12314). Briefly: BLI. A general note: BLI is a label-free optical method that tracks binding on a fibre tip over time.

Experimental findings from PMC7990132 are described below.

Chain of UniProt P12314 (P12314 16-374): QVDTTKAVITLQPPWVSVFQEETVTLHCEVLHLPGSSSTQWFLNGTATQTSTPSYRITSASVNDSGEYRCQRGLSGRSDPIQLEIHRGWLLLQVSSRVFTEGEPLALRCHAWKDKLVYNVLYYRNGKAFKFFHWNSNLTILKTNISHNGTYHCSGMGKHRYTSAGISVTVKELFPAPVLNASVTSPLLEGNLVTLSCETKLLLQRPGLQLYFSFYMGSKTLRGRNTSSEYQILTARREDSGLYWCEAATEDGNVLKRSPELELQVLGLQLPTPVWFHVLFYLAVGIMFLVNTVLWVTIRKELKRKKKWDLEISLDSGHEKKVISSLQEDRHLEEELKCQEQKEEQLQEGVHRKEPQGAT

In the case of Sintilimab (antibody), the Kd (as a rule, the constant that tells how readily two partners part at equilibrium) came to 10 nM. This lies in the double-digit nanomolar range.
